This is an account of results in paper PMC4263359, “Vesicular Stomatitis Virus Polymerase's Strong Affinity to Its Template Suggests Exotic Transcription Models” (PLoS Computational Biology, 2014).

The assay has as its target T1, VSV L protein (vesicular stomatitis virus (endogenous …, UniProt P03523 1-2109)).
T1 construct: also called catalytic unit of the VSV polymerase; polymerase
Nature of the assay: co-sedimentation. As to conditions: partners not purified.

T1 sequence (P03523 whole entry): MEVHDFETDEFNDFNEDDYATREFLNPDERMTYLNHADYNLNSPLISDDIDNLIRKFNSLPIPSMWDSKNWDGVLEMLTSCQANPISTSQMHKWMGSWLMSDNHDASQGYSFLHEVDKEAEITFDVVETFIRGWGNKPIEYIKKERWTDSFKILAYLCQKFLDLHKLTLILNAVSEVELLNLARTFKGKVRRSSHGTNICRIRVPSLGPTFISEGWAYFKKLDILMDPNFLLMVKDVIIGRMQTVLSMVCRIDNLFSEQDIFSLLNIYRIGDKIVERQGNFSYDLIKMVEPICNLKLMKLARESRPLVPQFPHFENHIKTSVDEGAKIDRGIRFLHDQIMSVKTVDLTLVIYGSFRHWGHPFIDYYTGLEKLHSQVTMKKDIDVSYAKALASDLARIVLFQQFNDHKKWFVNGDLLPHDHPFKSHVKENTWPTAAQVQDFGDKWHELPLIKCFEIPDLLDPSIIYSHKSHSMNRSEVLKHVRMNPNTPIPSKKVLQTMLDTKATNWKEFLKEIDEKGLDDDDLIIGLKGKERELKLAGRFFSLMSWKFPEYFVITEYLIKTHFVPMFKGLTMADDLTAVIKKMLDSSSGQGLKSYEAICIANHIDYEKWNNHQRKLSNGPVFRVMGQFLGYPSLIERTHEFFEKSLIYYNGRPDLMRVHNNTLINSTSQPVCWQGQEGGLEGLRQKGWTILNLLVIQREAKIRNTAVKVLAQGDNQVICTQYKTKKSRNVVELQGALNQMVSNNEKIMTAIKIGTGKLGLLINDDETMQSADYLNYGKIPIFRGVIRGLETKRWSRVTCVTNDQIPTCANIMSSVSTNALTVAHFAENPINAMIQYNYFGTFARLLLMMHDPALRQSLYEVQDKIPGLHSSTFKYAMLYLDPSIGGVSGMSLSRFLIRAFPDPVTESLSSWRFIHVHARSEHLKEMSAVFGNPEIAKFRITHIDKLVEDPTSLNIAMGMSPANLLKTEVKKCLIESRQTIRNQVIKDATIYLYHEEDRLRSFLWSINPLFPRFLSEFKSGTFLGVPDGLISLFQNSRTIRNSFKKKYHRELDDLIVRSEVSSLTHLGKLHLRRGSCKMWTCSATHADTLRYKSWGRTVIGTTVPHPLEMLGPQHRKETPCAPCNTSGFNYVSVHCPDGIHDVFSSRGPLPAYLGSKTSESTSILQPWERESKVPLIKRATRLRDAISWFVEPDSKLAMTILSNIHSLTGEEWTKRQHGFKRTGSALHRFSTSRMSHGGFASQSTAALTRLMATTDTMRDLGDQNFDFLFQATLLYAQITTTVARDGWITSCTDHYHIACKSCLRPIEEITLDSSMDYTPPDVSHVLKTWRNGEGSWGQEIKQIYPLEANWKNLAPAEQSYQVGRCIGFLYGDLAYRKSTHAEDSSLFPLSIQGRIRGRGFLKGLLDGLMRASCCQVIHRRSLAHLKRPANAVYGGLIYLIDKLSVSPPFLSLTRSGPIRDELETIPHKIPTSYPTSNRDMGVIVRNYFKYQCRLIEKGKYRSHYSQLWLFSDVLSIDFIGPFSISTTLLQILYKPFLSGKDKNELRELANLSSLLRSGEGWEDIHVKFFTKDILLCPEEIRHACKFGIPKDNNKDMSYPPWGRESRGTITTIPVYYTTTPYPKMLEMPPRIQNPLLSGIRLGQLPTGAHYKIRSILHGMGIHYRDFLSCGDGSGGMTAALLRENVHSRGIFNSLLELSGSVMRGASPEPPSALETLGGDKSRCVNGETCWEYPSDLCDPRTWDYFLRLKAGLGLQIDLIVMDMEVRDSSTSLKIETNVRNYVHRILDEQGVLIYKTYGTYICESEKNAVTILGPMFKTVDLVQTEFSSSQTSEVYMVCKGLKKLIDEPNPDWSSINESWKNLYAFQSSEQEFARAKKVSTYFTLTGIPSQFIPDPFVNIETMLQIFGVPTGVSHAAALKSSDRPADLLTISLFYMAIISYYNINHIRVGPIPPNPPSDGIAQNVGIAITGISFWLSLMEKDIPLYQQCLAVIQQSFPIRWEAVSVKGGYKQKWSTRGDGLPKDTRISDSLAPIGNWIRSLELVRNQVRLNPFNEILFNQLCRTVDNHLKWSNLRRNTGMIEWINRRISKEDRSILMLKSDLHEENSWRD

B1: full genome template (N-RNA) bound with P and L extracted from detergent-disrupted virions (complex)
chain 1: MSVTVKRIIDNTVIVPKLPANEDPVEYPADYFRKSKEIPLYINTTKSLSDLRGYVYQGLKSGNVSIIHVNSYLYGALKDIRGKLDKDWSSFGINIGKAGDTIGIFDLVSLKALDGVLPDGVSDASRTSADDKWLPLYLLGLYRVGRTQMPEYRKKLMDGLTNQCKMINEQFEPLVPEGRDIFDVWGNDSNYTKIVAAVDMFFHMFKKHECASFRYGTIVSRFKDCAALATFGHLCKITGMSTEDVTTWILNREVADEMVQMMLPGQEIDKADSYMPYLIDFGLSSKSPYSSVKNPAFHFWGQLTALLLRSTRARNARQPDDIEYTSLTTAGLLYAYAVGSSADLAQQFCVGDNKYTPDDSTGGLTTNAPPQGRDVVEWLGWFEDQNRKPTPDMMQYAKRAVMSLQGLREKTIGKYAKSEFDK
chain 2: MDNLTKVREYLKSYSRLDQAVGEIDEIEAQRAEKSNYELFQEDGVEEHTKPSYFQAADDSDTESEPEIEDNQGLYAQDPEAEQVEGFIQGPLDDYADEEVDVVFTSDWKPPELESDEHGKTLRLTSPEGLSGEQKSQWLSTIKAVVQSAKYWNLAECTFEASGEGVIMKERQITPDVYKVTPVMNTHPSQSEAVSDVWSLSKTSMTFQPKKASLQPLTISLDELFSSRGEFISVGGDGRMSHKEAILLGLRYKKLYNQARVKYSL
notes: also called whole genome template; copies: 1250 +
On to B1, for which the Kd is 0.02 nM.
